Measurements: the supplement of paper PMC10567573
± gives the standard deviation.

Assay: protein stability index of a GFP-peptide fusion (GPS, HEK-293T) (PSI 1-6); higher = more stable
Conditions: c terminus: a fixed tail appended
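Also: 24-mer peptide tiles fused after GFP, lentivirally expressed, FACS-sorted into six equal bins by GFP/DsRed ratio, decoded by Illumina sequencing, PSI is the read-weighted mean bin number.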

Sequence | protein stability index (treatment: DMSO) | protein stability index (treatment: MLN4924 1 uM, 8 h)
KKRYEEEINKRTAAENEFVLLKKD [KRT71] | 5.07 ± 0.2 | 4.99 ± 0.27
KLEAEKRILQEKLDQPVSAPPSPR [CCDC6] | 5.24 ± 0.26 | 5.21 ± 0.37
KLFFVDTGSKEKGLTKKRTKVQKK [NOP53] | 3.26 ± 0.13 | 3.83 ± 0.54
KLFSTYLRPPHTSRGTSQTPNASS [LPCAT4] | 3.17 ± 0.19 | 3.08 ± 0.32
KLPNDSRVERRFHFSQSLTVIHDF [FAF2] | 2.17 ± 0.19 | 2.26 ± 0.44
KLVKVCNGHDCWSLISLSNNTGKN [TENT5D] | 2.33 ± 0.24 | 2.34 ± 0.43
KMAAVSKASGRFGLLQGTSAETSG [SEPHS2] | 3.94 ± 0.15 | 3.88 ± 0.25
KMNLYESFAQATQLGDLHTCLMMD [INTS3] | 2.5 ± 0.2 | 2.58 ± 0.37
KMSLYSEADSGYGSYGGFASAPTT [TRIM9] | 3.15 ± 0.36 | 3.18 ± 0.12
KMTLTQVSTWFANARRRLKKENKM [IRX6] | 2.83 ± 0.29 | 3.02 ± 0.23
KNSLFPSPISSISPGLHSFTDHQR [KCNK9] | 3.3 ± 0.25 | 3.27 ± 0.38
KPANILLDAHYHVKISDFGLAKCN [RIPK4] | 2.33 ± 0.22 | 2.49 ± 0.23
KPISTKSQFLKHQQTHNIEKAHEC [ZNF649] | 4.48 ± 0.27 | 4.41 ± 0.16
KPIVPTDGKRVIVVFHCEFSSERG [CDC25A] | 2.64 ± 0.72 | 2.33 ± 0.28
KPSENHPLHNSGLLSLDPVQDKTP [MED27] | 4.984 ± 0.04 | 5.02 ± 0.22
KQPLRKYVTPSDFDQLKQFLTFDK [EFHC1] | 2.94 ± 0.18 | 3.02 ± 0.17
KRFASLSRFVETLVVADDKMAAFH [ADAMTS4] | 2.25 ± 0.52 | 2.06 ± 0.58
KSSAQGPIPWFLPESRSLPSSPLR [PPEF2] | 3.56 ± 0.53 | 3.56 ± 0.21
KSTSKYIYQTLFLNGENSDIKICA [GMCL1] | 2.06 ± 0.65 | 3.41 ± 1.3
KTQEHTPTPDDHVFRWLAYSYAST [CPXM2] | 2.14 ± 0.34 | 2.2 ± 0.3
KTSQLSYYYMGFYIHSCPKMKYKG [ATE1] | 2.47 ± 1.2 | 2.25 ± 0.66
KVIERGERLDELQDKSESLSDNAT [VAMP4] | 5.38 ± 0.13 | 5.33 ± 0.18

Sequence | protein stability index (treatment: DMSO) | protein stability index (treatment: MLN4924 1 uM, 8 h)
KWFGRKRTLSAFLCLGGLACLIVM [SLC22A15] | 5.07 ± 0.21 | 5.17 ± 0.18
KWRKVGRSLQRGCRALRDPALDSL [TRADD] | 2.19 ± 0.16 | 2.54 ± 0.13
KYNSARADFEQKMLDSALRFQAME [FCHO1] | 3.5 ± 0.074 | 3.48 ± 0.27
LAESEFESAAFSQGSRSGVSGGSR [PHTF1] | 4.83 ± 0.3 | 4.93 ± 0.32
LAKALLKRTAQAIEPYITNFFNQV [PDS5B] | 2.58 ± 0.71 | 2.7 ± 0.72
LARRRRRRQARREAEADKPRRLGR [NOP53] | 4.63 ± 0.093 | 4.75 ± 0.42
LASRIRSNKKMLLLVGGLPPGPDR [KLHL14] | 2.32 ± 0.17 | 2.34 ± 0.42
LCLGGLACLIVMFLPEKKDTGVFA [SLC22A15] | 3.44 ± 0.26 | 3.08 ± 0.67
LDEGMQIPSTQFDAAHPTNVQRLA [CTNNB1] | 4.73 ± 0.12 | 4.7 ± 0.2
LDLILAILALELICSLICLLIYTV [TMEM192] | 2.89 ± 0.55 | 3 ± 0.5
LDPAYTTLEFENVQVLTMGNDTSP [HNF4A] | 5.58 ± 0.15 | 5.46 ± 0.18
LDVDTAAGGFQQRQGLKYCLPLTF [FBXO3] | 2.42 ± 0.19 | 2.22 ± 0.45
LEERLQLQFEAEMARLQEEHGDQL [MTUS2] | 5.4 ± 0.32 | 5.13 ± 0.17
LEPDEDPLCMLLLIDHLALRARNY [TCF25] | 2.54 ± 0.32 | 2.37 ± 0.23
LERNPNGVADGVIKSVLWQTLQAL [CDKL4] | 2.28 ± 0.94 | 2.56 ± 1.1
LESQVQKDGVADSTVISSMPCLLM [C18orf25] | 3.39 ± 0.25 | 3.54 ± 0.27
LEVNKPKNRYANVIAYDHSRVLLS [PTPRD] | 2.54 ± 0.31 | 2.71 ± 0.21
LFCDVTLTAQGQQFHCHKAVLASC [KLHL14] | 2.66 ± 0.55 | 2.71 ± 0.57
LFEEEDHVKKLQQKVATLEKRNRQ [CCDC3] | 4.46 ± 0.29 | 4.68 ± 0.23
LFFIDGSTPSDNIVRRFLNICENT [CDC14A] | 2.37 ± 0.17 | 2.22 ± 0.24
LFLPCLLCYPPAKGCLKLCRRCYD [SPRY1] | 2.36 ± 0.19 | 2.45 ± 0.62
LGLKDKEGYTSFWNDCISSGLRGG [GOLPH3L] | 2.65 ± 0.59 | 2.83 ± 0.31

Sequence | protein stability index (treatment: DMSO) | protein stability index (treatment: MLN4924 1 uM, 8 h)
LGLTQNPEGQKVLFVTFLLIYMVT [OR4A15] | 2.75 ± 0.66 | 3.33 ± 1.1
LGNEYPKLHYPELYVLKGGYKEFF [CDC25A] | 2.02 ± 0.23 | 2.01 ± 0.39
LGNFFTTLRVVHHKFHSQRHGSKK [TMEM120A] | 2.39 ± 0.21 | 2.54 ± 0.64
LHEVLTEVVPIHGRGNFPTLEITL [TENT5C] | 2.73 ± 0.56 | 2.53 ± 0.53
LHPVQKVILNYPSPWDQEERPAQR [TRAF3IP2] | 3.4 ± 0.37 | 3.66 ± 0.34
LHREVRSTPLTATPGGRGDMKYGI [VTI1B] | 3.72 ± 0.24 | 3.67 ± 0.12
LIAEVMGEDIPEKIKDEVHPEVKC [C8orf76] | 4.51 ± 0.58 | 4.31 ± 0.14
LICKYDFIMLSCVQLQRIPLSAVY [TPRG1] | 3.2 ± 0.37 | 3.36 ± 0.83
LIERERSALGPNVTKITLESFLAW [ZC3H15] | 2.19 ± 0.47 | 2.49 ± 0.14
LIGDLIGHSSSVEMFLYFEDHGLV [WDR41] | 2.57 ± 0.51 | 2.83 ± 0.81
LIHQHEKVIYLDDDVIVQGDIQEL [GLT8D2] | 3.6 ± 0.26 | 3.59 ± 0.22
LKERFAFLFNSELLSDVRFVLGKG [BTBD1] | 2.53 ± 0.23 | 2.64 ± 0.41
LKISPVTLKEAYVQKLVKVCTDTD [TENT5C] | 2.94 ± 0.16 | 2.91 ± 0.14
LKNNETLVQHGVKPQEIVQVEIFS [IQUB] | 2.82 ± 0.54 | 2.98 ± 0.7
LLAPGEQSLPCTERKPAATARLSR [KISS1] | 4.46 ± 0.37 | 4.72 ± 0.18
LLASVPSNPNGNGGFMGYSAENIP [CRY1] | 3.52 ± 0.45 | 3.41 ± 0.23
LLDDGQQASPYHPGSCGAGAPSPG [ELF3] | 4.71 ± 0.1 | 4.57 ± 0.39
LLEGQDAKMAGIGIREASSGGGGS [KRT15] | 5.09 ± 0.14 | 4.87 ± 0.2
LLFVRGAGNCPECGTPLRKSNFRV [MNAT1] | 2.2 ± 0.19 | 2.6 ± 0.32
LLISSCDWMAAMFGGPFVESSTRE [RHOBTB2] | 2.68 ± 0.52 | 2.37 ± 0.48
LLLDCGAEVNAVDNEGNSALHIIV [FEM1B] | 2.39 ± 0.45 | 2.24 ± 0.42
